# Laboratory results published in patent publication US20060009380A1 (L OREAL, published 2006).
# T1: transglutaminase 3 (human, UniProt Q08188 2-693, limits assumed)
# T1 sequence (looked up): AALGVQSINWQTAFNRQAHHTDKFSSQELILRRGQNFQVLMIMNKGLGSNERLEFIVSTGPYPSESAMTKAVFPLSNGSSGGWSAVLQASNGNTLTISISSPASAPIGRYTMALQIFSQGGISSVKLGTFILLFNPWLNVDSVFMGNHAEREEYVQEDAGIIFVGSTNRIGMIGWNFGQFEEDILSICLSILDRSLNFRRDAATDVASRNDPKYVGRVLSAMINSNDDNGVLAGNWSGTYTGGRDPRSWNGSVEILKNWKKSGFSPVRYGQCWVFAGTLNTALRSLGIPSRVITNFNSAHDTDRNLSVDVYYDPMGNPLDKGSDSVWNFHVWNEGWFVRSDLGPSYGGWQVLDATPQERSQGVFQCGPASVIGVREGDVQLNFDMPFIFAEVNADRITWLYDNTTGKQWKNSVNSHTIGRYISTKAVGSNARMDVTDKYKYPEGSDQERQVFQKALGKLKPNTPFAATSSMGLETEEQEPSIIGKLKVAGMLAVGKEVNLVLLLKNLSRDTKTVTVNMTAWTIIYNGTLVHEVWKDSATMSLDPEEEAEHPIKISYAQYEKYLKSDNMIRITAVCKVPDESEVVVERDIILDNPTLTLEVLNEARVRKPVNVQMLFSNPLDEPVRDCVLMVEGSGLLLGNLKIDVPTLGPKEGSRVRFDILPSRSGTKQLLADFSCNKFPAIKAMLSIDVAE
# B1: CLSP (calmodulin-like skin protein), the polypeptide of the invention (other)
# chain: AGELTPEEEAQYKKAFSAVDTDGNGTINAQELGAALKATGKNLSEAQLRKLISEVDSDGDGEISFQEFLTAARKARAGLEDLQVAFRAFDQDGDGHITVDELRRAMAGLGQPLPQEELDAMIREADVDQDGRVNYEEFARMLAQE
# notes: also called skin protein similar to calmodulin
# Molecular target: T1, transglutaminase 3
# Test: affinity chromatography: CLSP on CNBr-sepharose, human epidermis extract loaded with calcium chloride, eluted with EDTA, held protein sequenced
# Description: The coupling efficiency was 0.95 mg of polypeptide per milliliter of balls. Human epidermis (0.83 g of abdominal skin obtained from plastic surgery and 100 g of plantar stratum corneum) was homogenized with polytron in 10 ml and 120 ml respectively of 10 mmol of Hepes buffer, pH 7.4, containing 150 mmol of sodium chloride, 0.1% (weight/volume) of triton X100 and a mixture of protease inhibitors (Complete™ EDTA-free of Roche Molecular diluted with […] of depepstatin).
# The suspension is then centrifuged at 10,000 g for 10 minutes at 4° C. The supernatant is filtered at 0.22 and adjusted with 2.5 mmol of calcium chloride before passing at ambient temperature through the affinity column. The columns are then washed with 10 volumes of 10 mmol Hepes buffer, pH 7.4, containing 150 mmol of sodium chloride, 0.1% (weight/volume) of triton X100 and a mixture of protease inhibitors. The elution is carried out by using the same buffer that contains 5 mmol of EDTA instead of 2 mmol of calcium chloride.
# The eluted proteins are subjected to a denaturing gel electrophoresis (SDS-PAGE) and after migration, they are colored with silver with a silver coloration kit of the Amersham Pharmacia Biotech Company and according to the recommendations of the manufacturer.
binder,measurement,value
B1,binding result,binds
